Measured values: patent US20200055935A1 (AGENCY FOR SCIENCE TECHNOLOGY AND RESEARCH, published 2020)

Target: T1, human TIM-3 coupled to Fc (human, UniProt Q8TDQ0 22-200, limits assumed)
T1 construct: Immobilised on the SPR sensor chip; not shown: Fc part
Experiment: SPR (ProteOn XPR36), human TIM-3-Fc immobilised, antibody in flow
Method: In order to select some leads amongst the ELISA-positive clones, TIM-3 association/dissociation profiles were analysed by Surface Plasmon Resonance (SPR). Briefly, human TIM-3 coupled to Fc was immobilised on sensor chip and the antibodies were then applied as a flow onto the chip. Association and dissociation rates were recorded using a ProteOn XPR36 bioanalyser (Biorad). Nine clones (1B9, 1H9, 1H10, 2C7, 2F4, 2G6, 1D9, 1F4, 2C8) were selected based on their rapid/strong association to TIM-3 and their slow dissociation from the protein (FIG. 5).

binding result | Binder
binds | anti-TIM-3 antibody clone 1H10 (antibody, V domains shown) VH: QVQLQQWGAGLLKPSETLSLTCAVYGGSFSGYYWSWIRQPPGKGLEWIGEINHSGSTNYNPSLKSRVTISVDTSKNQFSLKLSSVTAADTAVYYCARGYVAGFDSWGQGTLVTVSS VL: QSVLTQPPSVSAAPGQKVTISCSGSSSNIGNNYVSWYQQLPGTAPKLLIYGNNWRPSGIPDRFSGSKSGTSATLGITGLQTGDEADYYCDSWDYDYAAGVFGGGTKLTVL
binds | anti-TIM-3 antibody clone 2G6 (antibody, V domains shown) VH: QVQLQQWGAGLLKPSETLSLTCAVYGGSFSGYYWSWIRQPPGKGLEWIGEINHSGSTNYNPSLKSRVTISVDTSKNQFSLKLSSVTAADTAVYYCARGYVAGFDSWGQGTLVTVSS VL: QSVLTQPPSVSAAPGQKVTISCSGSSSNIGNNYVSWYQQLPGTAPKLLIYGNNWRPSGIPDRFSGSKSGTSATLGITGLQTGDEADYYCDSWDSSDSSGVFGGGTKLTVL
binds | anti-TIM-3 antibody clone 2F4 (antibody, V domains shown) VH: QVQLQQWGAGLLKPSETLSLTCAVYGGSFSGYYWSWIRQPPGKGLEWIGEINHSGSTNYNPSLKSRVTISVDTSKNQFSLKLSSVTAADTAVYYCARGYVAGSDAWGQGTLVTVSS VL: QSVLTQPPSVSAAPGQKVTISCSGSSSNIGNNYVSWYQQLPGTAPKLLIYGNNWRPSGIPDRFSGSKSGTSATLGITGLQTGDEADYYCESWDYDYASGVFGGGTKLTVL
binds | anti-TIM-3 antibody clone 1B9 (antibody, V domains shown, also called 169) VH: QVQLQQWGAGLLKPSETLSLTCAVYGGSFSGYYWSWIRQPPGKGLEWIGEINHSGSTNYNPSLKSRVTISVDTSKNQFSLKLSSVTAADTAVYYCARGYVAGSDAWGQGTLVTVSS VL: QSVLTQPPSVSAAPGQKVTISCSGSSSNIGNNYVSWYQQLPGTAPKLLIYGNNWRPSGIPDRFSGSKSGTSATLGITGLQTGDEADYYCEAWDYYVAAGYFGGGTKLTVL
binds | anti-TIM-3 antibody clone 2C7 (antibody, V domains shown) VH: QVQLQQWGAGLLKPSETLSLTCAVYGGSFSGYYWSWIRQPPGKGLEWIGEINHSGSTNYNPSLKSRVTISVDTSKNQFSLKLSSVTAADTAVYYCARGYVAGYDYWGQGTLVTVSS VL: QSVLTQPPSVSAAPGQKVTISCSGSSSNIGNNYVSWYQQLPGTAPKLLIYGNNWRPSGIPDRFSGSKSGTSATLGITGLQTGDEADYYCDSWDSYLAAGVFGGGTKLTVL
binds | anti-TIM-3 antibody clone 1D9 (antibody, V domains shown) VH: QVQLQQWGAGLLKPSETLSLTCAVYGGSFSGYYWSWIRQPPGKGLEWIGEINHSGSTNYNPSLKSRVTISVDTSKNQFSLKLSSVTAADTAVYYCARGYYAGDDYWGQGTLVTVSS VL: QSVLTQPPSVSAAPGQKVTISCSGSSSNIGNNYVSWYQQLPGTAPKLLIYGNNWRPSGIPDRFSGSKSGTSATLGITGLQTGDEADYYCEAWDSAYAAGSFGGGTKLTVL
binds | anti-TIM-3 antibody clone 1F4 (antibody, V domains shown) VH: QVQLQQWGAGLLKPSETLSLTCAVYGGSFSGYYWSWIRQPPGKGLEWIGEINHSGSTNYNPSLKSRVTISVDTSKNQFSLKLSSVTAADTAVYYCARGYVAGYDYWGQGTLVTVSS VL: QSVLTQPPSVSAAPGQKVTISCSGSSSNIGNNYVSWYQQLPGTAPKLLIYGNNWRPSGIPDRFSGSKSGTSATLGITGLQTGDEADYYCDSWDAALSAGVFGGGTKLTVL
binds | anti-TIM-3 antibody clone 1H9 (antibody, V domains shown) VH: QVQLQQWGAGLLKPSETLSLTCAVYGGSFSGYYWSWIRQPPGKGLEWIGEINHSGSTNYNPSLKSRVTISVDTSKNQFSLKLSSVTAADTAVYYCARGYVAGFDDWGQGTLVTVSS VL: QSVLTQPPSVSAAPGQKVTISCSGSSSNIGNNYVSWYQQLPGTAPKLLIYGNNWRPSGIPDRFSGSKSGTSATLGITGLQTGDEADYYCDSWDSADASGVFGGGTKLTVL
